# Results as given in article PMC7264293 (2020).
# Molecular target: T1, WIPI3-Δloop (human, UniProt Q5MNZ6 1-344, Blade 2 B-C loop (75-80) deleted | Blade 6 C-D loop (264-281) deleted)
# Experiment: ITC
# T1 sequence (Q5MNZ6 other isoform, or with tags, fused parts or gaps with the stated changes): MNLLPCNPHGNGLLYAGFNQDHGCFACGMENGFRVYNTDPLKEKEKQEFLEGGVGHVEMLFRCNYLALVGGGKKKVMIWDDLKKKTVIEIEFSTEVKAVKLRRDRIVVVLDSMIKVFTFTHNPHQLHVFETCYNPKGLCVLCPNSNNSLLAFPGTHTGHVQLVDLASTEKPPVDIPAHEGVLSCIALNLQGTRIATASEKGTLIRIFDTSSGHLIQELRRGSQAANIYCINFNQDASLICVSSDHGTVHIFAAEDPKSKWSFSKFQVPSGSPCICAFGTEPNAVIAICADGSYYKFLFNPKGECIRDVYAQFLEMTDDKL
row,Binder,Kd [µM]
1,PRDGEPAVTQLHPGPIVVRDGYFSRPIGSTD [GB1-tagged WIR-peptide V1380A],36.9
2,PRDGEPQVTQLHPGPIVVRDGYFSRPIGSTD [GB1-tagged WIR-peptide V1380Q],14.1
3,PRDGEPVATQLHPGPIVVRDGYFSRPIGSTD [GB1-tagged WIR-peptide V1381A],75.9
4,PRDGEPVVAQLHPGPIVVRDGYFSRPIGSTD [GB1-tagged WIR-peptide T1382A],14.2

# Molecular target: T1, WIPI3-Δloop
# Experiment: ITC
# Remark: another data set of the same source
row,Binder,Kd [µM]
1,PRDGEPVVTQLHPGPQVVRDGYFSRPIGSTD [GB1-tagged WIR-peptide I1389Q],379
2,PRDGEPVVQQLHPGPIVVRDGYFSRPIGSTD [GB1-tagged WIR-peptide T1382Q],37.2
3,PRDGEPVVTQLHPGPIVVRDGAFSRPIGSTD [GB1-tagged WIR-peptide Y1395A],391
4,PRDGEPVQTQLHPGPIVVRDGYFSRPIGSTD [GB1-tagged WIR-peptide V1381Q],82
5,PRDGEPVVTQLHPGPIVVRAGYFSRPIGSTD [GB1-tagged WIR-peptide D1393A],44.4
6,PRDGEPVVTQLHPGPIVQRDGYFSRPIGSTD [GB1-tagged WIR-peptide V1391Q],48.9
